Experimental data as given in patent US20150259422A1 (UNIVERSITY OF NORTH CAROLINA AT CHAPEL HILL, published 2015).
Substitutions are numbered along the chain they refer to.

B1: VH3/Vκ2 Composite Human Antibody variant of HLMC (antibody, human IgG1, kappa, V domains shown)
VH: QAQLVQSGAEVKKPGASVKVSCKASGYLFSNSWMNWVKQRRGAGLEWIGRIFPGDGDTNYNGKFKGRATITADKSTSTAYMELSSLRSEDTAVYFCARWGLTRDRRLYLDYWGQGTTVTVSS
VL: DIVMTQSPDSLAVSLGERATINCKSSQSLLYSSNQKNYLAWYQQKPGQAPRLLIYWASTRESGVPDRFTGSGSGTDFTLTISSLQAEDVAVYYCKQYYTYPLTFGQGTKLEIKR
notes: also called VH3/Vk2
B2: VH1/Vκ3 Composite Human Antibody variant of HLMC (antibody, human IgG1, kappa, V domains shown)
VH: B1 VH with A9P, V11L, R41P, T91S
VL: B1 VL with T69S
notes: also called VH1/Vk3
B3: VH3/Vκ3 Composite Human Antibody variant of HLMC (antibody, human IgG1, kappa, V domains shown)
VH: B1 VH
VL: B1 VL with T69S
notes: also called VH3/Vk3
B4: VH5/Vκ1 Composite Human Antibody variant of HLMC (antibody, human IgG1, kappa, V domains shown)
VH: B1 VH with A68V, F95Y
VL: B1 VL with A12V, P46S
notes: also called VH5/Vk1
B5: VH2/Vκ1 Composite Human Antibody variant of HLMC (antibody, human IgG1, kappa, V domains shown)
VH: B1 VH with A9P, R41P
VL: B1 VL with A12V, P46S
notes: also called VH2/Vk1
B6: VH2/Vκ3 Composite Human Antibody variant of HLMC (antibody, human IgG1, kappa, V domains shown)
VH: B1 VH with A9P, R41P
VL: B1 VL with T69S
notes: also called VH2/Vk3
B7: VH5/Vκ3 Composite Human Antibody variant of HLMC (antibody, human IgG1, kappa, V domains shown)
VH: B1 VH with A68V, F95Y
VL: B1 VL with T69S
notes: also called VH5/Vk3
B8: VH3/Vκ1 Composite Human Antibody variant of HLMC (antibody, human IgG1, kappa, V domains shown)
VH: B1 VH
VL: B1 VL with A12V, P46S
notes: also called VH3/Vk1
B9: VH1/Vκ2 Composite Human Antibody variant of HLMC (antibody, human IgG1, kappa, V domains shown)
VH: B1 VH with A9P, V11L, R41P, T91S
VL: B1 VL
notes: also called VH1/Vk2
B10: VH4/Vκ1 Composite Human Antibody variant of HLMC (antibody, human IgG1, kappa, V domains shown)
VH: B1 VH with A68V
VL: B1 VL with A12V, P46S
notes: also called Vh4/Vk1; VH4/Vk1
B11: VH4/Vκ3 Composite Human Antibody variant of HLMC (antibody, human IgG1, kappa, V domains shown)
VH: B1 VH with A68V
VL: B1 VL with T69S
notes: also called VH4/Vk3
B12: VH2/Vκ2 Composite Human Antibody variant of HLMC (antibody, human IgG1, kappa, V domains shown)
VH: B1 VH with A9P, R41P
VL: B1 VL
notes: also called VH2/Vk2

biological target: T1, alphaVbeta3 integrin, native human, on rhabdomyosarcoma (RD) cells and on human umbilical vein endothelial … (human, UniProt P06756 31-1048; P05106 27-788); experiment: flow cytometry on RD cells expressing alphaVbeta3, PE anti-human IgG; EC50 = concentration where 50% of cells gated in R2
T1 construct: whole, on cells; also called αVβ3; native human β3
T1 sequence (P06756 31-1048, chain 1 of 2): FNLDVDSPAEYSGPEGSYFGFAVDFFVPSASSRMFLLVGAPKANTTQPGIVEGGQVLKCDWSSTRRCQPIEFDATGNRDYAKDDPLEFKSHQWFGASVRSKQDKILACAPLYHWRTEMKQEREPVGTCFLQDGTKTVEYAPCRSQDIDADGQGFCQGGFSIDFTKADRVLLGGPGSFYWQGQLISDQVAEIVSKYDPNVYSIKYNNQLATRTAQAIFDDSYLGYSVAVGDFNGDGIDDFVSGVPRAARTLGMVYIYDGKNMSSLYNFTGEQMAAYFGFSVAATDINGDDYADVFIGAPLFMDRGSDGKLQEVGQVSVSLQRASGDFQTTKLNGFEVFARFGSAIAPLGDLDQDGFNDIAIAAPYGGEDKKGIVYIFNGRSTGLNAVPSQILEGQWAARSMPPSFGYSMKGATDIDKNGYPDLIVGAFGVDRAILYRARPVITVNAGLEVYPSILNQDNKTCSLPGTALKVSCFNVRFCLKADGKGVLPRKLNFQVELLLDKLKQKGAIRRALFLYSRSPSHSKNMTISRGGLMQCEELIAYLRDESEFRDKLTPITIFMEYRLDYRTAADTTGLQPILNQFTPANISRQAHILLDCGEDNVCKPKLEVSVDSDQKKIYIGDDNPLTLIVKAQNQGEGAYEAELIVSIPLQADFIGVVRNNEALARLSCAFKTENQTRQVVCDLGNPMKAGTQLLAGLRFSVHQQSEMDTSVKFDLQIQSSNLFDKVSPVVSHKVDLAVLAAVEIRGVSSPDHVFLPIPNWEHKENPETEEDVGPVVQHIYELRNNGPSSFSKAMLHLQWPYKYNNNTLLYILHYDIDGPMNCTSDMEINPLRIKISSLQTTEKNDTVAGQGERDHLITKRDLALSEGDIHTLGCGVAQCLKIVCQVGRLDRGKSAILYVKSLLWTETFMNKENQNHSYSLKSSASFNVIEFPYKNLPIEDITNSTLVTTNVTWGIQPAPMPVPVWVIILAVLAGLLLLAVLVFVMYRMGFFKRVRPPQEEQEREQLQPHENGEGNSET
T1 sequence (P05106 27-788, chain 2 of 2): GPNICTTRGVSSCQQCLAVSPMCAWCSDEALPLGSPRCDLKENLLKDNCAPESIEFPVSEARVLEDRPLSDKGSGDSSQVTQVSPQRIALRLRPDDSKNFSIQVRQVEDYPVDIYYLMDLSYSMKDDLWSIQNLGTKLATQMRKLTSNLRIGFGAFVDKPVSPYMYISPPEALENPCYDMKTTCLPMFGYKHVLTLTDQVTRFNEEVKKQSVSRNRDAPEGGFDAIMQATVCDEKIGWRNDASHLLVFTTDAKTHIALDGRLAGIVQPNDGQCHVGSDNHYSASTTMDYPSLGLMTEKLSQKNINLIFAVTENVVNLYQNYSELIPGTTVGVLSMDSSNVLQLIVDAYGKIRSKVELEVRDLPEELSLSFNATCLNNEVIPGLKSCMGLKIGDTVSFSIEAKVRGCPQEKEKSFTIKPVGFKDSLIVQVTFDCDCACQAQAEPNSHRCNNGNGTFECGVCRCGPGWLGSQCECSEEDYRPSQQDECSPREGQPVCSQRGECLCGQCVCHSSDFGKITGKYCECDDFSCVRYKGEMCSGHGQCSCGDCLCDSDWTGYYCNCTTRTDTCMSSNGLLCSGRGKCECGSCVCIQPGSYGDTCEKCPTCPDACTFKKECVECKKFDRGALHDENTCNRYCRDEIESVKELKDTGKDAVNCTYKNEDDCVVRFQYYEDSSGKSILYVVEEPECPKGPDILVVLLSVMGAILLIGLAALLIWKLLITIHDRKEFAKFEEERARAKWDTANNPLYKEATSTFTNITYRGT
Experimental: (§1) The binding of NS0-derived HLMC Composite Human Antibody™ variants to rhabdomyosarcoma (RD) cells expressing alphaVbeta3 integrin was assessed in a flow cytometry binding assay. Briefly, a subconfluent monolayer of RD cells was prepared and incubated in serum free medium for 24 hours prior to harvest. […] Cells were resuspended into a suitable volume of cold FACS buffer (1% FBS/0.01% sodium azide/PBS) to yield a final cell density of 4×10⁶ cells/ml.
(§2) The plates were incubated at 4° C. for 1 hour. Cells were washed with FACS buffer, resuspended in 100 μl of secondary antibody (Sigma Cat. No. P8047, goat anti-human IgG (γ chain specific; PE conjugated) and incubated for 1 hour at 4° C. Cells were washed twice, resuspended in a final volume of 175 μl FACS buffer and transferred to FACS tubes. Fluorescence was measured by flow cytometry and data plotted as normalized % positive events (gated in R2).

| EC50 | Binder |
| --- | --- |
| 47.4 nM | B1 |
| 4.08 nM | B2 |
| 3.13 nM | B3 |
| 4.42 nM | B4 |
| 4.55 nM | B5 |
| 3.7 nM | B6 |
| 3.15 nM | B7 |
| 4.85 nM | B8 |
| 5.43 nM | B9 |
| 3.12 nM | B10 |
| 2.03 nM | B11 |
| 4.92 nM | B12 |

biological target: T1, alphaVbeta3 integrin, native human, on …; experiment: flow cytometry on RD cells expressing alphaVbeta3; reference chimeric HLMC
Experimental: as §1, §2

| relative binding score (EC50 of variant divided by EC50 of chimeric HLMC) | Binder |
| --- | --- |
| 13.2 ratio | B1 |
| 1.14 ratio | B2 |
| 0.87 ratio | B3 |
| 1.23 ratio | B4 |
| 1.27 ratio | B5 |
| 1.03 ratio | B6 |
| 0.88 ratio | B7 |
| 1.35 ratio | B8 |
| 1.52 ratio | B9 |
| 0.87 ratio | B10 |
| 0.57 ratio | B11 |
| 1.37 ratio | B12 |
